# Experimental data: the nanobody polyreactivity screen of Harvey et al. (2022)
# Assay: yeast display, Sf9 membrane polyspecificity reagent, FACS + sequencing; frameworks hold sequencing errors
# How it was run: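 A synthetic nanobody library was expressed on Saccharomyces cerevisiae BJ5465 by galactose induction for 36–48 hours. The library was stained for 1 hour at 4 °C with 10% biotinylated, detergent-solubilized Sf9 membrane reagent and enriched with streptavidin microbeads before FACS. Low and high (top ~1%) gates were set on anti-HA fluorescence for expression and streptavidin fluorescence for reagent binding, and each polyreactivity label reflects the gate of origin.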
row,Sequence,polyreactivity (PSR sort gate)
1,QVQLVESGGGLVQAGGSLRLSCAASGSIFYTNAMGWYRQAPGKEREMVATITSSTGSTNYADSVKGRFTISRDNAKITVYLQMNSLKPEDTAVYYCAKRDGYWVYYQMDYWGQGTQVTVSS,low polyreactivity
2,QVQLVESGGGLVQAGGSLRLSCAASGRTSNFNAMGWYRQATGKERELVAAINSDGSTYYADSVKGRFTISRDNAKNTVYLQMNSLKPEDTAVDYCAVRKRPHGYLAFGYWGQGTQVTVSS,low polyreactivity
3,QVQLVESGRGLVQAGGSLRLSCAASGFIFGGYAMGWYRQAPGKERELVAAISRSGGSTYYADSVKGRFTISRDNAKNTVYLQMNSLKPEDTAVYYCAAKFWPEDHRLDYWGQGTQVTVSS,low polyreactivity
4,QVQLVESGGGLVQAGGSLRLSCAASGSTFLVYAMGWSRQAPGKERELVAAIRGGGSTNYADSVKGRFTISRDNAKNTVYLQMNSLKPEDTGVYYCAAYLLYTPSMDYWGQGTQVTVSS,low polyreactivity
5,QVQLVESGGGLVQAGGSLRLSCAASGRTFYSYTMGWYRQAPGKERELVAAINRGGSTYYADSVKGRFTISRDNAKNTVYLQMNSLYPVDNAVYYCAVGYAHSSNRRYYYKQTHGYWGQGTQVTVSS,low polyreactivity
6,QVQLVESGGGLVQAGGSLRLSCAASGITFYYYAMGWYRQAPGKERELVAAISFRGGSTYYADSVKGRFTISRDNAKNTVYLQMNSLIPEDTAVYYCAAETSPSWYTWVTYDYWGQGTQVTVSS,high polyreactivity
7,QVQLVESGGGLVQAGGSLRLSCAASGRIFGYYAMCWYRQAPGKERELVARITWYGGDTYYADSVKGRFTISRDNAKNTVYLQMNSLKPEHTAVYYCGADFVFYRQPDTYFYPHDYWGQGTQVTVTS,low polyreactivity
8,QVQLVESGGGLVQAGGSLRLSCAASGTIFLVYAMGWYIQAPGKERELVAAITFSGGDTYADSVKGRFTISRDNAKNTVYLQMNSLKPEDTAVYYCNAPWPYYGSVVGQDFDYWGQGTQVTVSS,low polyreactivity
9,QVQLVESGGGLVQAGGSLRLSCAASGRTFVPYAMGWYRQAPGKEREMVAAISQSGGRTYYTDSVKGRFTISRDNAKNTVYLLMNSLKPEDTAVYYCAARGPYRPPHGDAYYTYVYWGQGTQVTVSS,high polyreactivity
10,QVQLVESGGGLVQAGGSLRLSCAASGITFRTYAMGWYRQAPGKERELVAGIRTRTGSTYYADSVKGRFTISRDNAKNTVYLQMNSLKPEDTAVYYCAAKGSGYYGRQRIYSYTYDYWGQGTQVTVSS,high polyreactivity
11,QVQLVESGGGLVQAGGSLRLSCAASGRTFATNVMGWYRQAPGKERELVAAISRSGGRTYYADSVKGRFTISRDNAKNTVYLQMNSLKPEDTAVYYCAARRRRFYYQYYRYDYWGQGTQVTVSS,high polyreactivity
12,QVHLVESGGGIVQAGGSLRLSCAASGFTFRRYAMGWYRQAAGKERELVATITKGGGRTYYADSVKGRFTISRDNAKNTVYLQMNSLKPEDTAVFYCNASLTYDYNYWGPGTQVTVSS,high polyreactivity
13,QVQLVESGGGLVQAGGSLRLSCAASGSTFPPNAMGWYRQAPGKERELVAGINGSGGRTYYADSVKGRFTISRDNAKNTVYLQLNCMKPEDTAVYYCAAEGTTIWFDLTYDDWYEYYSWGQGTQVTVSS,high polyreactivity
14,QVQLVESGGGLVQAGGILRLSCAASGSIFSGNDMGWYRQAPGKERELVASINRSGGSTNYAVSVKGRFTISRDNAKNTVYLQMNSLKPEDTAVYYCARDFSFLGNASARLDYDYWGQGSQVTVSS,low polyreactivity
15,QVQLVESGGGLVQAGGSLRLSCAASGSIFTYNAMGWYRPAPGKERELVAAINTSGSTNYADSVKGRFTISRDNAKNTVYLQMNSLKPEVTAVFYCAAGIVVTGYYYWGQGTQVTVSS,low polyreactivity
16,QVQLVESGGGLVQAGGSLRLSCAASGIIIGNNAMGWYRQAPGKERELVAAISRRGGSTYYADSVKGRFTISRDNAKNTVYLQMNSLKPEDTAVYYCAADIYRYNSYDYWGQGTQVTVSS,low polyreactivity
17,QVQLVESGGGLVQAGGSLRLSCAASGIIFRRYAMGLYRQAPGKERELVAAISSRGGSTYYADSVKGRFTISRDNAKNTVYLQMNCLKPEDTAVYFCAKGFSGTGGSGDFGYWGQGTQETVSS,high polyreactivity
18,QVQLVESGGGLVQAGGSLRLSCAASGRILYGYAMGWYRQAPGKERELVASITWSGGSTYADSVKGRFTISRDNAKNTVYLQMNSLKPEDTAVYYCATRRGPKWQWLTYGYWGQGTKVTVSS,low polyreactivity
19,PVQLVESGGGLVQAGGSLRLSCAASGSTFRRNVMGWYRQAPGKEREFVAAISYRTGSTYYADSVKGRFTISRDNAKNTVYLQMNSLKPEDTAVYYCAASSQWVGYYYWGQGTQVTVSS,high polyreactivity
20,QVQQLESGGGLVQAGGSLRLSSAASGTIFRISDMGSYRQAPGTEREFVAAITYGANTYYADSGKGRFTISRDNAKNTVYRQMNSLKPDDTAVYDCAVPPVKESILDYWGQGTQVTVSR,low polyreactivity

row,Sequence,polyreactivity (PSR sort gate)
1,QVQLVESGGGLVQAGGSLRLSCAASGSIFGDYAMGWYRQAPGKERELVATITWIGGSTYYADSVKGRFTISRDNAKNTVYLQMNSLKPEDTAVYYCAATKYVDVKYYYWGQGTQVTVSS,low polyreactivity
2,QVQLVESGGGLVQAGGSLRLSCAASGITFYRYAMGWYRQAPGKERELVAAISKRGGTTYYADSVKGRFTISRDNAKNTVYLQMNSLKPEDTAVYYCNKAKTAYRGQYDYWGQGTQVTVSS,high polyreactivity
3,QVQLVESGGGLVQAGGSLRLSCAASGSTFQTYVMGWYRQAPGKERELVAAISSGGSTNYADSVKGRFTISRDNAKNTVYLQMNSLKPEDTAVYYCAKRWPYFRRGKDGYWGQGTQVTVSS,low polyreactivity
4,QVQLVESGGGLVQAGGILRLSCAASGRIFYYNAMGGYRQAPGKERELVAAITSGGSTNYADSVKGRFTISRDNAKNTVYLQMNSLKPEDTAVYYCAADYYYYVAGVHYDYWGQGTQVTVSS,low polyreactivity
5,QVQLVESGGGLVQAGGSLRLSCAASGNTLGYYAMGWYRPAPGKERELVATISDDGTTYYADSVKGRFTISRDNAKNTVSLQMNSLKPEDTAVYYCATDGSAQYSMDYWGQGTQVTVSS,low polyreactivity
6,QVQLVESGGGLVQAGGSLRLSCAASGSLFDHYAMGWYRQEPGTERELVARISWSGGSTYYADSVKGRFTISRDNAKNTVYLQMNRLKPEDTAVYYCARAGRSWDTLYKYYLEHDYWGQGTQVTVSS,low polyreactivity
7,QVQLVESGGGLVQAGGSLRLSCAASGYTFYTNAMGWYIQAPGKERELVASIRSRGRSTYYADSVKGRFTISRDNAKNTVYLQMNSLKPEDTAVFYCAALPNIPAVYAYDYWGQGTQVTVSS,low polyreactivity
8,QLQLVESGGGLVQAGGRLRLSCAASGLTFQYNAMGWYRQAPGKERELVASINSGGSTDYADSVKGRFTISRDNAKNTVYLQMNRLKQEDTAVYYCASSGYWYSASYGYEYWGQGTQVTVSS,low polyreactivity
9,QVQLVESGGGLVQAGGSLRLSCAASGSILGHYAMGWYRQAPGTERELVAAISRGGSTTYYADSVKGRFTISRDNAKNTVYFQMNSLKPEDTAVYYCAARSASKMDYWGQGTQVNVSS,high polyreactivity
10,QVQLEVSGGGLVQAGGSLLLSCAASGFTFYFYAMGWSRQATGTERELVAAISRSGSRTYYADSVKGRFTISRDNAKNTVYLQMNSLKPEDTAVYYCARVRPRGLYFVLHYDYWGQGTHVTVSS,high polyreactivity
11,QVQLVESGGGLVQAGGSLRLSCAASGTFGYYTMGWYRQAPGKERELVAAITRSGGSTYYADSVKGRFTISRDNAKNTVYLQMNSLKPEDTAVYYFATELHAWSSWNRYRAYYYWGQGTQVTVSS,high polyreactivity
12,QVQLVESGGGLVQAGGSLRLSCAASGLTFSTNDMGWYRQAPGKEREFVAAISFNGGSTYYADSVKGRFTLSRDNAKNTVYLQMNSLKPEDTAVYYCAAGSDYGLYYGFDFWGQGTQVTVSS,high polyreactivity
13,QVQLVESGGGLVQAGGSLRLSCAASGSIFPVYAMGWYRQAHGKVREFVASIRWRGGSTSYADSVKGRFTISRDNAKNTVYLQMNSLKPEETAVYYCNAVYYSWSQSARFDYWGQGTQVTVSS,low polyreactivity
14,QVQLVESGGGLVQSGGSLRLSCAASGSTFNYYAMGWYRQAPGKERELVAVINKSGGRTNYADSVKGRFTISRDNAKNTVYLQMNSLKPEDTAVYYCNKVTRREGSYGYPSRYEYWGQGTQVTVSS,high polyreactivity
15,QVQLVESWGGLVQAGGSLRLSCDASGSTFIPKDMGWYRQAPGKERELVAAITVSGDDTYYADSVKGRFTISRDNAKNTVYIQMNILKPEVTAVYYCAAEWGLYVGQYEYCGQGTQVTVSS,low polyreactivity
16,QVQLVESAGGLVQAGGSLRLMCAASGNTLSWYALGWYRQAPGKERELVAVITSGGSTNYADSVKGRFTISRDYAKNTVYLQMNSLKPEDTAVYYCNRRPYGFDEFDYWGQGTQVTVSS,low polyreactivity
17,QVQLVESGGGLVQAGGSLRLSCAASGFTFAGYAMGWYRQAPGKERELVAAISISGGRTYYADSVKGRFTSSRDYAKNTVYLQMNSLKPEDTAVYYCNAASREPSGYDYWGQGTQVTVSS,high polyreactivity
18,QVQLVESGGGLVQAGGSLRLSCAASGSTFPSNAMGWYRQAPGKERELVAAISSGGRTYYADSVKGRFTISRDNAKNTVYLQMNSLKPEDTAVYYCAADTDRRSPFDYWGQGTQVTVSS,high polyreactivity
19,QVQLVESGGGLVQAGGSLRLSCAASGLIFVGYAMGWSRQAPGKERELVAAITSGGYTKYADSVKGRFTISRDNAKYSVYLQMNSLKPEDTAVYFCAASGWRKWWSARNYYWGQGTQVTVSS,low polyreactivity
20,QVQLVESGGGLVQAGGSLRLSCAASGSIFTINAMGWYSQAPGKERELVAALTSGGSTSYADSVKGRFTISRDIAKNTVYLQMNSLKPEDTAVYYCAADAKRFYPYRWRLYYWGQGTQVTVSS,high polyreactivity
